Data as given in the DeepSol protein solubility set.

Experiment: soluble on expression in E. coli; label from the status in PepcDB or PDB records

| Sequence | soluble on expression in E. coli |
| --- | --- |
| MGSDKIHHHHHHMWVCGLGVIRFGPAGKPVEFKGDIVKVPEFLRSIGLDALEYEAVRGVRISEAKARRLGEAARENGVILSMHAPYYVNLSSPDDSVVERSIKRLYDSMIASEWMGSYAVVVHPGYYKGLKSREEAVKRVIEALNRLIESLPSWVKTPWIAPETMGKQSQVGSLEETVEICLNTPRCRPCVDWAHLYARAEGKFVTSVDQVVKAIEYIESNLGREAVDPLHTHFSKIEYGKGGERMHHTLREEGYGPDWRIVCRAYKETGINAVVISESPILEKDALLMKSICKGEA | not soluble |
| MRVALFITCLADHFYPKAGVAPVRLLRALGVKVDFPKGQTCCGQPAFNAGYWDEARPLAKRTLEVFEEAEYVVLPSGSCTSMVKNHYPELLPGNREALAMAEKTYELSQFLVRVLGVEKLGEGLKGRRVAYHHGCHALRELGVREEPLLLLQNAGAEVLPWEAWEECCGFGGLFSVKLPEVSLAMADRKLATLPKAEVLTSTDAGCLLHLAGRLGKKGENLRVAPLATLLWEAYAG | soluble |
| MVLEGIHSHDPQARDIAIQYYHAAETTIYDYIARRHPQSAQCVTDFMSTVMSGLSAKAREGHSIEQLCATAALAGEAIKTLLKE | not soluble |
| MYSYADRLRAVELYIRLGKRLNTTIRQLGYPTKNALRGWYREYVQHLDLRTQPVARAPKYSEAQRQAALEHFRTHDRCISGTMRALGYPGRGTLTAWVREAFPEARTSMVGRSWHPGYSEEVRQAGVIGLCSGDESAQQVADRLGVSRPTLYSWKDQLLGHEASSSMKRRKANPKVPEREELERKLEALQRDVRQLQLEHDLLKKANELLKKGLGVDLLILSNREKTQLIDALKEVYRLPELLAQLRIARSSYFYHRARMCLADKYAAVRLSLAEIFEANRRCYGYRRLQASLARKSVIVSEKVVQRLMKQEHLAVARPRRRRFGSYLGEISPAPENLINRDFHADAPNVKWLTDITEFQIPAGKVYLSPIIDCFDGMVISWSIGTQPDAGLVNTMLDAAIGTVANGEERPIIHSDRGAHYRWPGWLTRISEARLVRSMSRKGCSQDNAACEGFFGRLKTELFYPRDWKAITIEQFVAEVDAYIRWYNEKRIKISLGSLSPVEYRQSLGLKLAAALEHHHHHH | soluble |
| MGSDKIHHHHHHMKDMTNLDNFEVGFDIPAKPGMDAAEIQTPCLVLDLDALERNVKKMGDYAKAHGMRHRVHGKMHKSVDVAKLQERLGGAVGVCCQKVSEAEVFVRGGIKDVLVSNQVRDPLKIDRLAQLPKLGSRIIVCVDDLANVADLSAAALRHGTELEVLIEIDCGAGRCGVGTTQDVVAIARAVDAAENLKFTGIQAYQGAMQHLDKYEDRKAKLDIAIEMVESAVQGLKAVGLDPELVSGGGTGSYYFEANSGVYNELQCGSYAFMDADYGRILDQNGQRIDKGEWENAMFILTQVMSHAKADKAIVDAGLKAQSVDSGLPFVHGRDDVEYIKCSDEHGVVADPNGVLKVGDKLRLVPGHCDPTANVHDWYVGVRGGKVECVWPVSARGKAY | not soluble |
| MSAEMTVEGMISVFMKIRKVYADEFGRMLGNETYSPNEISILLFLANNPSIDTNSQLCTCLGVSKALVCRSVDALLGKEMIISVADDHDKRVQHLKLTEHALPVIEQLGGIKRKIDQEILEGIPEEDIANMANTMEKIFARFEERAKGKESSL | not soluble |
| DQPGHYVGTDPNLGALSAFLAGETEEVPDANEIMPVLWDMVTTGVAQGESARAVRTAFVSNPSAALTGLSESLVPAEKQPGRVVESGLVRAKFTASNDESGSSHHRAPWIAVLELLGSLDAMTDQSGKPIELETDAPAPAGKKLSEGVVAKRALLAEIKELAGENAVAIVKTARDTTLDTACIDQSTVAIAGMAKAQQEALLEMFFSRSKIVPGLIMDDGNRLLAVFETFNKRVELNELLASEGLIKSAVTLLRTLRSTDKNLYSLARIRFDKLDGVDTNAPENMWSLTPVVSLVLALAARMHAHGFISSNKTLDSATPGWAKLADIVPDLVTGDLIAADAIILAMKKPGIA | not soluble |
| MNKILLVDDDRELTSLLKELLEMEGFNVIVAHDGEQALDLLDDSIDLLLLDVMMPKKNGIDTLKALRQTHQTPVIMLTARGSELDRVLGLELGADDYLPKPFNDRELVARIRAILRRSHWSEQQQNNDNGSPTLEVDALVLNPGRQEASFDGQTLELTGTEFTLLYLLAQHLGQVVSREHLSQEVLGKRLTPFDRAIDMHISNLRRKLPDRKDGHPWFKTLRGRGYLMVSAS | soluble |
| MGSDKIHHHHHHMSDFFIETTKADKVLPTNSRPKFFAFGIPSYTNLGDQAVSLAQRKYIENEFPEYQYIEILEDDNDEGIEAVKKIITSQDIVSFVGGGNMGSLYTNHEAARRKVFSTFVNNLTISFPQSIHFEDTPSGLKEQKLSQEAYGKNRHLFLIARDAQSYHRMQTTFDNQVLFTPDMVLYFKASHYDFKRSGALFVLRHDGEKVVGDSLIDSMKKMLDNNRPLKRTDTVLDTVKRITPINREKLFKEELELFAHQEIVITDRWHAMVFSVLTGTPCLLFGNSYGKGKHAYFDWLEHINWIAYTDEEDLDRIDQQIQRLIKTKEHAYDIRPDFKQLHDLIKLHSKK | not soluble |
| MGGRQSSVTEERPRSNSVDTAQVRVSSQHSSSQRANVMTAAEFMQTMRNARFLSSSSDSNASEDDAGPSHSTTHGNRSRGLHATPGRLHGHHSRRSVPVFMMDMKCPVCHKVVPSDDADIHLVMCLTRPKITYNDDVLKDDKGECSICLEDLEAGHKIARLPCLCIYHKQCIDDWFKRKNCCPEHPGDD | not soluble |
| MGSDKIHHHHHHMSPRCSTCGMGQLCLPVGMNQQDLQKMDTLVQERVRVHKGETLYRMGDPLTAVYAIRFGTLKTHVTTEDGRSQITGFHLPGEVVGLDGLGEMQHASDATALEDTEVCVVRLSDLQSLSMDLPSLQQQFLRLMGKEISNDQLMLVTLGSMRAEERLAAFLINLSERLSARGYSSTEFVMRMSREEIGSYLGLKLETVSRLFSRFAEAGLIQIRQRHVKLVDMAGIKQVYSRSC | not soluble |
| GGSHMKSYEIALIGNPNVGKSTIFNALTGENVYIGNWPGVTVEKKEGEFEYNGEKFKVVDLPGVYSLTANSIDEIIARDYIINEKPDLVVNIVDATALERNLYLTLQLMEMGANLLLALNKMDLAKSLGIEIDVDKLEKILGVKVVPLSAAKKMGIEELKKAISIAVKDKKTAEIKYPNFEPYIKKIT | soluble |
| MAHHHHHHMGNTTDPGAAPLHSSGFFKISARFPKAAVAASGAGPSLKRRRAEAFVVGDDGVPTLRTTAIAPGEQVGGDGTAEPFEFFKAQQDAFMNDIEGIKDAQLQRFNRKARRIMKSRRAWASSSSSGRHANSQQHSSSSGTHVTGSGALSKTGAKKTKPKRY | soluble |
| MNLQIKHAIFVLGIFLQVQGIKDTSIKIFSSEIKNIDKTPRIETIESTSTVHKVSTMKRIFDLPKLRTKRSALFPAANICPQESLRQILASLQEYYRLRVCQEVVWEAYRIFLDRIPDTEEYQDWVSLCQKETFCLFDIGKNFSNSQEHLDLLQQRIKQRSFPGRKDETASMETLEAPTEAPVVPTDVSRMSLGPFPLPSDDTDLKEILSVTLKDIQKPTTESKTEPIHVSEFSSEEKVEFSISLPNHRFKAELTNSGSPYYQELVGQSQLQLQKIFKKLPGFGEIRVLGFRPKKEEDGSSSTEIQLMAIFKRDHAEAKSPDSHLLSLDSNKIESERIHHGVIEDKQPETYLTATDLKKLIIQLLDGDLSLVEGKIPFGDEVTGTLFRPVTEPDLPKPLADVTEDATLSPELPFVEPRLEAVDREGSELPGMSSKDSSWSPPVSASISRSENLPSFTPSIFSLDAQSPPPLMTTGPTALIPKPTLPTIDYSTIRQLPLESSHWPASSSDRELITSSHDTIRDLDGMDVSDTPALSEISELSGYDSASGQFLEMTTPIPTVRFITTSSETIATKGQELVVFFSLRVANMPFSYDLFNKSSLEYQALEQRFTDLLVPYLRSNLTGFKQLEILSFRNGSVIVNSKVRFAKAVPYNLTQAVRGVLEDLRSTAAQGLNLEIESYSLDIEPADQADPCKLLDCGKFAQCVKNEWTEEAECRCRQGHESHGTLDYQTLNLCPPGKTCVAGREQATPCRPPDHSTNQAQEPGVKKLRQQNKVVKKRNSKLSAIGFEEFEDQDWEGN | soluble |
| MRQRFLPLLALLSLLLPLPAPAAPTVSTVADQTGIALTIYNRNLGLVKDRREIRLAPGNGELRFMDVAAQIIPTSVSIASLAGGELQVLEQNYEYDLLSPQKLMDKYVGKEVKLHQKNPYTEREEVVTATLLSNNGGPVYRIGDEITFGHPGRLIFPGVPDDLIARPTLVWLLEGAAVEKRTIEASYLTGGISWRADYVVTLSEKDDQANLAGWVTIDNRSGAAYRNATLKLVAGDVNRVQEQSTRFAKSVRAEAMAPAPQFQEEAFFEYHLYTLQRPSTIKENQTKQINLVTADAVPVKKEFLLKGESFYYQSPAGEVEKQKVGVFVEMENRKEHNLGMPLPKGIVRVYKRDAGGSLQFVGEDTIDHTPEKETVRVKLGDAFDVVGERKQTEWRKVASDTYESAFEIRLRNHKKEDITVKVVEPVPGDWQMLSSSHPHEKGDAFSAVFKVPVPKDGEATLVYRVRMRYLEHHHHHH | soluble |
| MNRLPRIEQYGLIGDTQTSAHVCDDGSIDWLCLPRFDSPAVFASLLGTQKHGSWQISPAPSTGRSGPEKVTERRYRGDSLVLESVWRTPTGSVRVLDFMPPRDGTPQVIRIVEGLTGDVEMLSAMRPRPGYLEHHHHHH | not soluble |
| MFCEKAMELIRELHRAPEGQLPAFNEDGLRQVLEEMKALYEQNQSDVNEAKSGGRSDLIPTIKFRHCSLLRNRRCTVAYLYDRLLRIRALRWEYGSILPNALRFHMAAEEMEWFNNYKRSLATYMRSLGGDEGLDITQDMKPPKSLYIEVRCLKDYGEFEVDDGTSVLLKKNSQHFLPRWKCEQLIRQGVLEHILS | soluble |
| MSPIMARKPQIQAEQLAQKFVEKPEEQKDKQAVQKGQQLEGAKRWVADSELREQPVNSMQQVEHGPKAVILADDACWQTQRRVPAEIQLPQVGKISIPELSEKEIQRTIVAQPASYHKVQWNEFPEEPKYEIGAVPKTKTQDWVPVNNEQNELQRSIYKPARMSAVWPPPQDELVKDGHSPLVVKANEDTAWIQQDQNGVLKQAVWGKTSRINRVWPPPENESTLSDFGPQHMPVVQWPPPEAEAHEREQVEVLQKHIPTKKMERQWPPPPPQYQVVESSGEIETRYNPAEVDQQQQAVNSLRMGHIQA | not soluble |
| MGTVHARSLDPLPMNGPDFGSPDDADLVEVEPQKKQEILENKDVVVQRVHFEGLGRTKDDLVAHEIGQVFKAKNLIEVMRKSHEAREKLLRLGVFRNVEVLIDTCEGEDAVPNGLDVTFEVTELRRVTGSYNTMVGNNEGSMVLGLKLPNLFGRAEKMTFQFSYGTKETSYGLSFFKPQVGNFERNFSVNLYKVTGQFPWSSLRETDRGVSAEINFPIWKTSHTLKWEGVWRELGCLARTASFTIREESGHTLKSSLSHSMVIDSRNASILPKSGALLKINQELAGYTGGDVSFLKEDFELQLNRQLTWDSVLSTSLWGGMLVPIGDRPSSIADRFYLGGPTSVRGFSMYSIGPQSEGDYLGGEAYWAGGVHLYTPLPFRPGRGGFGDLFRTHFFLNAGNLCNLNYGEGPGAHLRRLAECIRWSYGAGLVLRLGNIARLELNYCIPMGVQSGDRICDGVQFGAGIRFL | soluble |
| MPQPAARVTDMHVCPMVTPGLPPVPHVGGPLLPPGSPSVFIGGLPAATLGTLALCSGPVDVVIMGSVKVLICGKPAARMGDICAHGGTIVSGYPQVLIG | not soluble |
| MTLAEENLRLFEKKFAILQEISNALVVTDNISAIANLMLDLAVNYTRAEKGSLLLLNERDELFILAGRGIDLQLMRTYRARLGEGIAGIVAKGRVPILVKDIDQDSRFQGMTRDRYKTPSFISCPIVSKDRLLGLLNINDKADGTPFLDDEFSLIKIIANQAAIALENAMLVNQLR | not soluble |
| GMSNLETAKAMIAAYNAQDVDTYVSYMTDDACEANYRGDVVREGKEGTRSGLAAAFARWPQNHAEIKDAQQVGTYVLMREHVTRGPATDGSPLVEPFDVVAVYSFEGDKCSRVEFIR | soluble |
